Data on 27 molecules can be found in US20180155451A1 (published 2018).

B1: GpH7-B3 variant I336_08L/GpL16-k0 (antibody, human IgG1, kappa)
heavy: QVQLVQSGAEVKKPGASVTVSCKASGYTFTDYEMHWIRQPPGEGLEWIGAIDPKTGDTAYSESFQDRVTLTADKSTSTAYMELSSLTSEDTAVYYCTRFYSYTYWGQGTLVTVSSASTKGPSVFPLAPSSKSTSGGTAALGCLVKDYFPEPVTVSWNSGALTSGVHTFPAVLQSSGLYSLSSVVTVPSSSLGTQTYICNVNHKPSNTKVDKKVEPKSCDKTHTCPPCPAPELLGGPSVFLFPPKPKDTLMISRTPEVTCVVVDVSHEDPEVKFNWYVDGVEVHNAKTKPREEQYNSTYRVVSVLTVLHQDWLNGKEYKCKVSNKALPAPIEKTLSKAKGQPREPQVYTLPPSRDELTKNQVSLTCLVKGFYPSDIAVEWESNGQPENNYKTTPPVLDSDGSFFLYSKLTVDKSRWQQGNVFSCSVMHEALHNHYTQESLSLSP
light: DIVMTQSPLSLPVTPGEPASISCQASESLVHSNRNTYLHWYLQKPGQSPQLLIYKVSNRFSGVPDRFSGSGSGTDFTLKISRVEAEDVGVYYCSQNTHVPPTFGQGTKVEIERTVAAPSVFIFPPSDEQLKSGTASVVCLLNNFYPREAKVQWKVDNALQSGNSQESVTEQDSKDSTYSLSSTLTLSKADYEKHKVYACEVTHQGLSSPVTKSFNRGEC
notes: also called Ho Ab I336_08L
B2: GpH7-A5/GpH7-B3 variant I332_02A/GpL16-k0 (antibody, human IgG1, kappa)
heavy 1: not shown
heavy 2: not shown
light: B1 light
notes: also called He Ab I332_02A
B3: GpH7-A5/GpH7-B3 variant I332_13S/GpL16-k0 (antibody, human IgG1, kappa)
heavy 1: not shown
heavy 2: not shown
light: B1 light
notes: also called He Ab I332_13S
B4: GpH7-B3 variant S324_09D/GpL16-k0 (antibody, human IgG1, kappa)
heavy: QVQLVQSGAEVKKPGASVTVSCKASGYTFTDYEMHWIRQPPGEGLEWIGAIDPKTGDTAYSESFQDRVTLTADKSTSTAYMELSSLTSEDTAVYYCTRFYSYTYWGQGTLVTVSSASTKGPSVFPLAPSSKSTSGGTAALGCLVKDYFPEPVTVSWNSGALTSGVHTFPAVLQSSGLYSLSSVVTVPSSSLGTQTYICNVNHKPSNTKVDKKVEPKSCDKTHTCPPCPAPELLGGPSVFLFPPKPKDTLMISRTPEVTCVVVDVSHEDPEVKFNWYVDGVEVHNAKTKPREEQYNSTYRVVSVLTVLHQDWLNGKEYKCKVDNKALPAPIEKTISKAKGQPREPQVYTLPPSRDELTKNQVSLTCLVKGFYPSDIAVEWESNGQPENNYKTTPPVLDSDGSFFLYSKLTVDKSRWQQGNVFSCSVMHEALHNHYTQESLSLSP
light: B1 light
notes: also called Ho Ab S324_09D
B5: GpH7-B3 variant P271_01G/GpL16-k0 (antibody, human IgG1, kappa)
heavy: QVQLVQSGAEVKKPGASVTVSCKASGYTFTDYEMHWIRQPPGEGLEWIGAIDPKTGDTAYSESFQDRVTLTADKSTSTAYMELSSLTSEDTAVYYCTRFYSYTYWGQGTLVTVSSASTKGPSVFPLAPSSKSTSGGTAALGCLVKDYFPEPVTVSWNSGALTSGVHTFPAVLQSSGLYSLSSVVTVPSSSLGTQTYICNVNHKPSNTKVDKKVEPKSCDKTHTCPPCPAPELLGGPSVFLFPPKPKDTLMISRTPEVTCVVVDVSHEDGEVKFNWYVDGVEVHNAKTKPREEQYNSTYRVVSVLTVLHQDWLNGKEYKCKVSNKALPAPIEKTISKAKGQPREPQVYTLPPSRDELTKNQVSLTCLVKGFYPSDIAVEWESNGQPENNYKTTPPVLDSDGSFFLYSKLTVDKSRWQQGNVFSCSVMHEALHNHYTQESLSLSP
light: B1 light
notes: also called Ho Ab P271_01G
B6: GpH7-B3 variant K334_08L/GpL16-k0 (antibody, human IgG1, kappa)
heavy: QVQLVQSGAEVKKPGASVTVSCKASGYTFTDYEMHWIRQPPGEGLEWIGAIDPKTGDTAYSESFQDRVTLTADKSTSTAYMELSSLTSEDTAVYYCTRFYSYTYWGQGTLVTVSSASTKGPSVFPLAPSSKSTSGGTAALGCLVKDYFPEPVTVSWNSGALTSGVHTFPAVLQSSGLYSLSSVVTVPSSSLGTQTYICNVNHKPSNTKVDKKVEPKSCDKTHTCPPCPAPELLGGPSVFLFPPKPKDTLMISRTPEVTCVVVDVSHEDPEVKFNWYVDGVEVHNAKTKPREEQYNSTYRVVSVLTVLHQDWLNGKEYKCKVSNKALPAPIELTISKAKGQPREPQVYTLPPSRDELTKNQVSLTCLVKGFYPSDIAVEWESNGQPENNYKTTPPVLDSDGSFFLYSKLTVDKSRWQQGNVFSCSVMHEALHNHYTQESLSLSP
light: B1 light
notes: also called Ho Ab K334_08L
B7: GpH7-B3 variant S337_16H/GpL16-k0 (antibody, human IgG1, kappa)
heavy: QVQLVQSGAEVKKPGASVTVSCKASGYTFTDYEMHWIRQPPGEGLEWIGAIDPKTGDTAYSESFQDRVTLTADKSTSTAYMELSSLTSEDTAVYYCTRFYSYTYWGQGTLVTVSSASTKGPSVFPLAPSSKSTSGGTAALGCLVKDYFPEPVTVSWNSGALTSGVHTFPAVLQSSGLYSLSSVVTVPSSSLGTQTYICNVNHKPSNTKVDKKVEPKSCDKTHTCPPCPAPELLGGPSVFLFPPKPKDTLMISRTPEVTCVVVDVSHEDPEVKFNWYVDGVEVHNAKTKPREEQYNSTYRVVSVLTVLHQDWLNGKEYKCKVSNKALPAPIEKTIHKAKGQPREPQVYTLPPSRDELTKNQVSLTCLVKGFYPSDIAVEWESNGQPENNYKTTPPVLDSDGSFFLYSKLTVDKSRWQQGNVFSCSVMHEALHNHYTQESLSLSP
light: B1 light
notes: also called Ho Ab S337_16H
B8: GpH7-B3 variant S267_02A/GpL16-k0 (antibody, human IgG1, kappa)
heavy: not shown
light: B1 light
notes: also called Ho Ab S267_02A
B9: GpH7-B3 variant K326_19Q/GpL16-k0 (antibody, human IgG1, kappa)
heavy: not shown
light: B1 light
notes: also called Ho Ab K326_19Q
B10: GpH7-B3 variant K334_04F/GpL16-k0 (antibody, human IgG1, kappa)
heavy: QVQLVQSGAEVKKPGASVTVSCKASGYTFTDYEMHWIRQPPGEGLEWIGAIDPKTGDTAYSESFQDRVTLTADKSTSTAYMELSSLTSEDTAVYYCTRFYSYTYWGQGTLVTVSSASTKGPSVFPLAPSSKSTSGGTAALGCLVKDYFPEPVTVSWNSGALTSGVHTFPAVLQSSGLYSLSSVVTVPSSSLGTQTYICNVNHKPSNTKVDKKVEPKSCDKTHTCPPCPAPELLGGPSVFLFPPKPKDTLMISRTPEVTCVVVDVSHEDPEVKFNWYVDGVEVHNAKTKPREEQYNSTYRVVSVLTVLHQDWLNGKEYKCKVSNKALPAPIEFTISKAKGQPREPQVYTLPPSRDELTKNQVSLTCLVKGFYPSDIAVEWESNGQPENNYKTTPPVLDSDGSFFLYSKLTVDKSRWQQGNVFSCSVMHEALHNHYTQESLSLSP
light: B1 light
notes: also called Ho Ab K334_04F
B11: GpH7-B3 variant T335_15Y/GpL16-k0 (antibody, human IgG1, kappa)
heavy: not shown
light: B1 light
notes: also called Ho Ab T335_15Y
B12: GpH7-B3 variant T335_07I/GpL16-k0 (antibody, human IgG1, kappa)
heavy: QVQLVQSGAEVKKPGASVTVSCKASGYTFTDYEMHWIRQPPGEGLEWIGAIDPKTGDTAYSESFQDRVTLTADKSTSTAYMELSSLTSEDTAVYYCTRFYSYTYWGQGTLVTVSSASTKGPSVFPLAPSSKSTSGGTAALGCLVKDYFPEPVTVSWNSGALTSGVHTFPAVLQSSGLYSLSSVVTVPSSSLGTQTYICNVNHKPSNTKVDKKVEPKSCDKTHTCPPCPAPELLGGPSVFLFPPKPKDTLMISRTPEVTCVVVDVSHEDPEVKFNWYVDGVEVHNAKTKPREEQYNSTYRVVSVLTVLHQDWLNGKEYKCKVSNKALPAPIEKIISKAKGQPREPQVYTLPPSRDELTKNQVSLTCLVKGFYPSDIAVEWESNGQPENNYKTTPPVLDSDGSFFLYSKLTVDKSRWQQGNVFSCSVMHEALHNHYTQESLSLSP
light: B1 light
notes: also called Ho Ab T335_07I
B13: GpH7-A5/GpH7-B3 variant I332_09D/GpL16-k0 (antibody, human IgG1, kappa)
heavy 1: not shown
heavy 2: not shown
light: B1 light
notes: also called He Ab I332_09D
B14: GpH7-A5/GpH7-B3 variant H268_10E/GpL16-k0 (antibody, human IgG1, kappa)
heavy 1: not shown
heavy 2: not shown
light: B1 light
notes: also called He Ab H268_10E
B15: GpH7-B3 variant S337_14T/GpL16-k0 (antibody, human IgG1, kappa)
heavy: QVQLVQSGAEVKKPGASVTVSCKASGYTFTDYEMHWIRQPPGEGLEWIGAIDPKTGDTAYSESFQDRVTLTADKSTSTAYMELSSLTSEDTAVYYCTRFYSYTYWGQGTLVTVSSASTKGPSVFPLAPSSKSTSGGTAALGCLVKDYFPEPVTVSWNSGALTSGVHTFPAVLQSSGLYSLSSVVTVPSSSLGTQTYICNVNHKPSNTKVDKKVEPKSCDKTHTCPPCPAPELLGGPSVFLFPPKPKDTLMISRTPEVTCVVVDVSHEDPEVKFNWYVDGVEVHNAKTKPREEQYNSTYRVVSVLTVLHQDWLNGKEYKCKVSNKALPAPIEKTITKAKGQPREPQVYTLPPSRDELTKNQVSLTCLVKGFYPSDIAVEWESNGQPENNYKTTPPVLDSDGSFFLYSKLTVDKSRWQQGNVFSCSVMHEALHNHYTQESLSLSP
light: B1 light
notes: also called Ho Ab S337_14T
B16: GpH7-A5/GpH7-B3 variant H268_09D/GpL16-k0 (antibody, human IgG1, kappa)
heavy 1: not shown
heavy 2: not shown
light: B1 light
notes: also called He Ab H268_09D
B17: GpH7-A5/GpH7-B3 variant A330_12R/GpL16-k0 (antibody, human IgG1, kappa)
heavy 1: not shown
heavy 2: not shown
light: B1 light
notes: also called He Ab A330_12R
B18: GpH7-B3 variant L328_13S/GpL16-k0 (antibody, human IgG1, kappa)
heavy: not shown
light: B1 light
notes: also called Ho Ab L328_13S
B19: GpH7-B3 variant Q295_05P/GpL16-k0 (antibody, human IgG1, kappa)
heavy: not shown
light: B1 light
notes: also called Ho Ab Q295_05P
B20: GpH7-B3 variant S337_10E/GpL16-k0 (antibody, human IgG1, kappa)
heavy: not shown
light: B1 light
notes: also called Ho Ab S337_10E
B21: GpH7-B3 variant S239_09D/GpL16-k0 (antibody, human IgG1, kappa)
heavy: not shown
light: B1 light
notes: also called Ho Ab S239_09D
B22: GpH7-B3 variant K334_03V/GpL16-k0 (antibody, human IgG1, kappa)
heavy: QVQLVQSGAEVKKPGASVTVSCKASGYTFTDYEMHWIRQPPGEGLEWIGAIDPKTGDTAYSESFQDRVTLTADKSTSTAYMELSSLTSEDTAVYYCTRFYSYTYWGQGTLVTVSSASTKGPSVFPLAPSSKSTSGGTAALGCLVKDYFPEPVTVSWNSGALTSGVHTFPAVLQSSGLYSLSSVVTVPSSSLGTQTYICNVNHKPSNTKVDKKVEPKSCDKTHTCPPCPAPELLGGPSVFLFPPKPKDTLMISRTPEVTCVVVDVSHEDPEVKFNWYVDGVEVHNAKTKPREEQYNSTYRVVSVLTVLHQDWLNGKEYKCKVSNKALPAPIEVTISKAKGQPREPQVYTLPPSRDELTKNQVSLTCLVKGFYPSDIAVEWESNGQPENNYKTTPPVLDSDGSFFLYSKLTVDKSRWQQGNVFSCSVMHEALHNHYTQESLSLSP
light: B1 light
notes: also called Ho Ab K334_03V
B23: GpH7-B3 variant L328_02A/GpL16-k0 (antibody, human IgG1, kappa)
heavy: not shown
light: B1 light
notes: also called Ho Ab L328_02A
B24: GpH7-B3 variant K326_14T/GpL16-k0 (antibody, human IgG1, kappa)
heavy: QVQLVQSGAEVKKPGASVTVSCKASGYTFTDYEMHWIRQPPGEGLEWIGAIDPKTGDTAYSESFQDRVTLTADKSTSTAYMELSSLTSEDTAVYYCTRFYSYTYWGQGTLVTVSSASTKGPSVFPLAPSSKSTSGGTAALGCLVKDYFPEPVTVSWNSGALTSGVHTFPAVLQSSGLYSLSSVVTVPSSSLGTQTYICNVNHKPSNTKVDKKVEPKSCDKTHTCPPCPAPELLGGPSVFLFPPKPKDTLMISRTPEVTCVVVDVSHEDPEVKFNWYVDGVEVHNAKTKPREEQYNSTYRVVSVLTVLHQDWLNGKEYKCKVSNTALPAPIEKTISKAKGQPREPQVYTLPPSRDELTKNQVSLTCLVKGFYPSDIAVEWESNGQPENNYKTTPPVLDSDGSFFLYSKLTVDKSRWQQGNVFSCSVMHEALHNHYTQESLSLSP
light: B1 light
notes: also called Ho Ab K326_14T
B25: GpH7-B3 variant K334_15Y/GpL16-k0 (antibody, human IgG1, kappa)
heavy: not shown
light: B1 light
notes: also called Ho Ab K334_15Y
B26: GpH7-B3 variant T335_19Q/GpL16-k0 (antibody, human IgG1, kappa)
heavy: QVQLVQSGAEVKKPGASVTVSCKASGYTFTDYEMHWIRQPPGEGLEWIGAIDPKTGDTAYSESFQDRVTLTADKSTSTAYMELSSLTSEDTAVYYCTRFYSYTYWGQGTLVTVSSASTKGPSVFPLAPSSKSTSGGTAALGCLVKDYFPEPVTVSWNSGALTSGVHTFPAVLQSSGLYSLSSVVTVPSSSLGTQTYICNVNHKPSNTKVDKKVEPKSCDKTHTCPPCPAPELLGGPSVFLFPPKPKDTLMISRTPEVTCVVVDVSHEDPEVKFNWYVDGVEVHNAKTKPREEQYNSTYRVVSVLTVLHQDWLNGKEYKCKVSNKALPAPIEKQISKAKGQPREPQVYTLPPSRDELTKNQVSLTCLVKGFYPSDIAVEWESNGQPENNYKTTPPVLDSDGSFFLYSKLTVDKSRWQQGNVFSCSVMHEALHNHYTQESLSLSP
light: B1 light
notes: also called Ho Ab T335_19Q
B27: GpH7-B3 variant T335_16H/GpL16-k0 (antibody, human IgG1, kappa)
heavy: not shown
light: B1 light
notes: also called Ho Ab T335_16H

The target in this test is T1, FcγRIIa H (human, UniProt P12318 34-217).
T1 construct: extracellular domain; also called FcgRIIa H type; 2aH; not shown: His tag at the C terminus
T1 sequence (looked up): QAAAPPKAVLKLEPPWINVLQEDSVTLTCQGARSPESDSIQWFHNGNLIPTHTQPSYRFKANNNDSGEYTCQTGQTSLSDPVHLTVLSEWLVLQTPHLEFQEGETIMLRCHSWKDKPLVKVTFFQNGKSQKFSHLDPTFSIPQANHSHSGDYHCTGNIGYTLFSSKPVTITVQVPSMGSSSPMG
The test is described as follows: SPR Biacore, relative binding. For orientation: In SPR one partner is held on a chip, and binding of the other changes the refractive index at the surface.
Consider B1, for which the Ho/Con_2aH was 101 % of GpH7-B3/GpL16-k0 (=100).
For B2, the He/Con_2aH was 111 % of GpH7-A5/GpH7-B3/GpL16-k0 (=100).
The same measure, in the same setting: next, B3: 110 % of GpH7-A5/GpH7-B3/GpL16-k0 (=100).
For B4, the Ho/Con_2aH is 113 % of GpH7-B3/GpL16-k0 (=100).
Same read-out and setting: next, B5: 110 % of GpH7-B3/GpL16-k0 (=100); B6: 103 % of GpH7-B3/GpL16-k0 (=100); B7: 102 % of GpH7-B3/GpL16-k0 (=100).
On to B8, for which the Ho/Con_2aH is 120 % of GpH7-B3/GpL16-k0 (=100).
Still for that read-out and setting: the result for B9 reads 100 % of GpH7-B3/GpL16-k0 (=100); that for B10, 103 % of GpH7-B3/GpL16-k0 (=100).
B11: the Ho/Con_2aH was 102 % of GpH7-B3/GpL16-k0 (=100).
Turning to B12, the Ho/Con_2aH was 105 % of GpH7-B3/GpL16-k0 (=100).
Consider B13, for which the He/Con_2aH is 118 % of GpH7-A5/GpH7-B3/GpL16-k0 (=100).
With B14, the He/Con_2aH is 124 % of GpH7-A5/GpH7-B3/GpL16-k0 (=100).
As for B15, the Ho/Con_2aH is 105 % of GpH7-B3/GpL16-k0 (=100).
Take B16: the He/Con_2aH is 133 % of GpH7-A5/GpH7-B3/GpL16-k0 (=100).
Still for that read-out and setting: the result for B17 reads 108 % of GpH7-A5/GpH7-B3/GpL16-k0 (=100).
Take B18: the Ho/Con_2aH is 131 % of GpH7-B3/GpL16-k0 (=100).
The same measure, in the same setting: next, B19: 106 % of GpH7-B3/GpL16-k0 (=100); B20: 101 % of GpH7-B3/GpL16-k0 (=100).
Take B21: the Ho/Con_2aH was 112 % of GpH7-B3/GpL16-k0 (=100).
With B22, the Ho/Con_2aH is 111 % of GpH7-B3/GpL16-k0 (=100).
Same read-out and setting: the result for B23 reads 134 % of GpH7-B3/GpL16-k0 (=100); that for B24, 118 % of GpH7-B3/GpL16-k0 (=100).
As for B25, the Ho/Con_2aH was 110 % of GpH7-B3/GpL16-k0 (=100).
Still for that read-out and setting: the result for B26 reads 103 % of GpH7-B3/GpL16-k0 (=100); that for B27, 100 % of GpH7-B3/GpL16-k0 (=100).
